± gives the standard deviation of the averaged measurements.
system: ATP; assay: switch fluorescence ratio, 500 uM ATP over buffer (Cy3 cluster intensity, sum of 5 cycles each) (fold (ratio)); higher = stronger signal-on switching upon ATP binding; sequences stand for … in TCGTCGGCAGCGTCAGATGTGTATAAGAGACAGTTTTTTTTTTTTTTTTTTTTTTTTT…TC; conditions: aptamer strand: ATP DNA aptamer (quencher-CACCTGGGGGAGTATTGCGGAGGAAGG + anchor), 100 nM annealed; ATP concentration: 500 uM
In short: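 Values give the fluorescence ratio for each switch-domain sequence, averaged from per-cluster ratios of summed target-cycle to summed buffer-cycle Cy3 intensity. The Cy3-labelled switching-strand clusters sat on a modified Illumina MiSeq flow-cell, were annealed to 100 nM quencher-labelled ATP aptamer, and were imaged in selection buffer, then after 15 min with 500 uM ATP at 22 °C. Five cycles ran with NaOH stripping and re-annealing between them, and clusters outside 100-1000 RFU were excluded.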
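Also: ATP exposure 15 min at 22 °C before imaging.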

Sequence | switch fluorescence ratio
TGCAATTCAG | 1.14 ± 0.012
TTGTCGTGTG | 1 ± 0.033
GTCGTAAGAG | 0.98 ± 0.041
CGCGTGCAGG | 1.02 ± 0.033
CCTGGGATT | 1.02 ± 0.011
AGAGGGAATG | 0.975 ± 0.03
TGGTATGCGC | 0.9971 ± 0.0047
TGGGCAGATA | 1.08 ± 0.1
ATATAGGGTT | 1.04 ± 0.038
CCAGCGGTTG | 1.025 ± 0.004
AAAGGACGTG | 0.9356 ± 0.0076
GCGTAAGGAG | 1.06 ± 0.096
AATTACGTAA | 1.06 ± 0.012
CGTTGCGCTG | 1.01 ± 0.0069
GAGATAGGGG | 0.994 ± 0.016
ACATATGGTA | 0.9801 ± 0.0085
AAATATGTGG | 0.989 ± 0.02
CTTGAGGGGG | 1.04 ± 0.092
CAGCGCCATA | 1.078 ± 0.0042
GGTTGTGGGT | 0.996 ± 0.015
TCGTTGGACT | 1.01 ± 0.0029
ATGGTGGTGG | 1.011 ± 0.0062
TTTTGGATCT | 0.982 ± 0.023
AACTTTTACG | 1.074 ± 0.0069
TCTTAGGAGG | 0.9691 ± 0.0023

Sequence | switch fluorescence ratio
CTAGTTCTTA | 1.05 ± 0.065
GGAAAGTCAG | 0.992 ± 0.027
CGGAGAGCTG | 1.04 ± 0.014
TACAATTTTG | 1.013 ± 0.0017
TCTGTTAGGA | 1 ± 0.035
GCGTTGATGA | 1.01 ± 0.019
TTTTAGGCCT | 1.045 ± 0.0027
GTGGGGGGCA | 0.991 ± 0.033
GCGGGGTCGG | 1.0083 ± 0.00048
ATTGATCTCG | 1.04 ± 0.083
GGAATCCTTG | 1 ± 0.0087
TGAGCTGGGG | 0.996 ± 0.02
GTAGTATCAG | 1 ± 0.017
ATGAGTTTTG | 0.984 ± 0.029
CCCTGTCGGC | 0.997 ± 0.037
TAAATATGGG | 0.999 ± 0.034
GGTATTAAGT | 1 ± 0.011
GTTCGAGAGC | 0.995 ± 0.057
TTAATAGTTG | 0.97177 ± 0.00065
CATGCTTTCC | 1.17 ± 0.26
ACGGACGCAA | 3.95 ± 0.66
TTTTACTATT | 0.996 ± 0.041
GTGGTCAGGC | 0.975 ± 0.022
TGTAGGTGTT | 0.999 ± 0.077
AGACAAAAAT | 1.026 ± 0.0065

Sequence | switch fluorescence ratio
GTTTTGAGAG | 0.9595 ± 0.0086
TGCGTGAGGG | 1.04 ± 0.016
GAGTGCTTGG | 0.973 ± 0.022
TTGATGAGTG | 1.01 ± 0.033
GGCAGGGGGA | 1.01 ± 0.015
AGGTTGTCGT | 0.997 ± 0.035
ATTGATTTAA | 0.9989 ± 0.0086
TACGAGTCGT | 1.01 ± 0.022
CGCTACTTAT | 1.12 ± 0.029
CTGACGGTAG | 1.03 ± 0.022
TGCAGTTTTT | 0.999 ± 0.029
CCTGTACCAC | 1.07 ± 0.019
CGGGGCACCA | 0.99 ± 0.032
CCTGGAAAGT | 0.985 ± 0.0074
GCTAAGGGGC | 1.03 ± 0.018
CTTTCTTG | 1.01 ± 0.043
GACCTATTTC | 1.01 ± 0.019
TTGATTTTGG | 0.988 ± 0.026
GATTTAGAGC | 0.973 ± 0.037
GGGGGATAGG | 1 ± 0.025
ATACAGGGGG | 1.02 ± 0.067
GATTGTACGA | 1.01 ± 0.031
TGGGGCGAGG | 1.01 ± 0.014
TGAGCCTGCT | 0.98 ± 0.012
CACGCTTCCG | 1.07 ± 0.047

Sequence | switch fluorescence ratio
TTCCCGGGGG | 1.06 ± 0.067
GGTAAAAGCT | 1.03 ± 0.057
TTGGAGTGGT | 1.03 ± 0.013
GGTTCGTCAC | 1.11 ± 0.1
GATAATCGAG | 1.02 ± 0.018
TTTTAAAAGG | 0.99 ± 0.037
GTTTATGGTT | 1 ± 0.022
GGGATATTTT | 0.977 ± 0.018
CTGAGAGATG | 0.9914 ± 0.0072
AGGAGATTAG | 0.978 ± 0.029
TTGGGGCAAC | 1.03 ± 0.047
CATACATACG | 1.42 ± 0.056
TGTTGGAGGC | 0.9713 ± 0.0072
GGTGTTTAAG | 0.9717 ± 0.0067
AATTTGGTAC | 1.068 ± 0.0027
ATTGATGGGC | 0.9644 ± 0.0037
TCAGGGAGTG | 0.9758 ± 0.0095
GACCCGTCAG | 1.01 ± 0.013
TAGGGGTTAG | 0.9808 ± 0.0098
TACAAAGAGT | 1.04 ± 0.025
ATTTGAAGCG | 0.998 ± 0.024
GGACCAAAAG | 1.002 ± 0.0067
TCATGCCAAC | 1.03 ± 0.011
GAGGGTCTCT | 0.98005 ± 0.00068
CAAGGAAACG | 1.002 ± 0.0034

Source: the supplement of paper PMC10126150
